The values below come from the supplement of paper PMC10567573.

This data set in a line: protein stability index of a GFP-peptide fusion (GPS, HEK-293T) (PSI 1-6); higher = more stable.
The mark [1] stands for this setting: treatment: DMSO, c terminus: a fixed tail appended.
Where [2] appears, read: treatment: MLN4924 1 uM, 8 h, c terminus: a fixed tail appended.
Where [3] appears, read: treatment: DMSO, c terminus: native.
[4] abbreviates: treatment: MLN4924 1 uM, 8 h, c terminus: native.

± gives the standard deviation.
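Also: 24-mer peptide tiles fused after GFP, lentivirally expressed, FACS-sorted into six equal bins by GFP/DsRed ratio, decoded by Illumina sequencing, PSI is the read-weighted mean bin number.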

As for QFTSSSSMKGSCGIGGGIGGGSSR [KRT16], the protein stability index by setting is: under setting [1], 3.29 ± 0.26; under setting [2], 3.48 ± 0.32.
Take QGHLRRLRSRYSVASFKFDAGEVS [MYORG]: the protein stability index under setting [1] was 2.93 ± 0.26 and the protein stability index under setting [2] turned out to be 3.27 ± 0.33.
With QGLFFDMEAYLPKKNGLYLSLVLG [TMEM120A], the protein stability index by setting is: under setting [1], 2.67 ± 0.42; under setting [2], 2.62 ± 0.23.
For the sequence QGMEVDLVTGLAIEEACYAQTIPT [AUH], the protein stability index reads like this: under setting [1], 3.73 ± 0.21; under setting [2], 3.53 ± 0.2.
On to QHLDPQGAQELLEFTIRDLQRLGE [INTS4], for which the protein stability index reads like this: under setting [1], 3.53 ± 0.4; under setting [2], 3.81 ± 0.46.
Regarding QHSVPLQLELRAGAERLDALLADE [TRADD], the protein stability index by setting is: under setting [1], 4.63 ± 0.31; under setting [2], 4.62 ± 0.47.
In turn, QICRAQGLETLFSKAQELGGAGRE [ZSWIM9] came in with a protein stability index under setting [1] of 3.64 ± 0.23 and a protein stability index under setting [2] of 3.66 ± 0.26.
For QIDQIKRHSNVVILTTSNITEKID [TRIP13] the same measures were 3.21 ± 0.28 and 3.4 ± 0.19.
Regarding QIEKTTNREACRDLSGRRLRDVNH [SDE2], the protein stability index was 4.18 ± 0.24 under setting [1] and 4.11 ± 0.6 under setting [2].
QKYDPDKDEWHKVFDLPESLGGIR [KLHL13] had a protein stability index under setting [1] of 3.55 ± 0.23 and a protein stability index under setting [2] of 3.93 ± 0.29.
The corresponding values for QLLLQFERLVVLDYIIRNTDRGND [PI4K2A] are 2.98 ± 0.47 and 2.64 ± 0.36.
For the sequence QLPPVVPVSKPGALRRSLSRSMSQ [TCAP], the protein stability index came out at 3.97 ± 0.13 under setting [1] and 3.96 ± 0.13 under setting [2].
In the case of QLRLLQAPLQADLTEQVWKVQDAL [SCARA5], the protein stability index came to 3.15 ± 0.28 under setting [1] and 3.12 ± 0.3 under setting [2].
For QNPEAIAAAAMYTFLPDNFSPAKP [MYORG], the protein stability index amounted to 3.79 ± 0.15 under setting [1] and 3.86 ± 0.2 under setting [2].
Take QNPQITQLKIAANPFAKGFRENGR [TBX6]: the protein stability index came to 3.33 ± 0.29 under setting [1] and 3.35 ± 0.46 under setting [2].
For QQLHARYVLNLLYETKKHLVQLPN [PPEF2] the same measures were 2.66 ± 0.35 and 2.32 ± 0.22.
Turning to QRAPQLPTWWPLPTQVPAAEDYLT [SPAG8], the protein stability index is 3.12 ± 0.2 under setting [1] and 3.23 ± 0.21 under setting [2].
QRIALRLGNGNDKKEMNKSDLNTN [KMT2E]: the protein stability index reads like this: under setting [1], 4.78 ± 0.12; under setting [2], 4.47 ± 0.28.
In the case of QSGRDLQQYQSQAKQLFRKLNEQS [SEC22B], the protein stability index was found to be 3.72 ± 0.29 under setting [1] and 3.83 ± 0.27 under setting [2].
With QSLTEDLEFRKSMYEEEINETRRK [LMNB1], the protein stability index reads like this: under setting [1], 4.99 ± 0.26; under setting [2], 5.04 ± 0.18.
QSVENCPEDLAQLEELIDMAVLEE [RPAIN]: the protein stability index runs as follows: under setting [1], 5.27 ± 0.15; under setting [2], 5.27 ± 0.21.
As for QTESELQELSEVLELLSAPELKSL [FAN1], the protein stability index is, setting by setting: under setting [1], 4.1 ± 0.19; under setting [2], 4.11 ± 0.11.
Turning to QTNSETAVVALTQDQPSEAATGGA [HDAC6], the protein stability index runs as follows: under setting [1], 5.31 ± 0.2; under setting [2], 5.42 ± 0.062.
In the case of QTVDGKHQDLKYISPETMVALLTG [CDC25B], the protein stability index came to 2.77 ± 0.43 under setting [1] and 2.8 ± 0.33 under setting [2].
The corresponding values for QTVGVGRGRFTTYEIRVKTNLPIF [SNX3] are 2.83 ± 0.067 and 3.02 ± 0.22.
With QTWVRDHHPENGEEAVTVLEDLES [ZNF24], the protein stability index under setting [1] was 5.34 ± 0.21 and the protein stability index under setting [2] was found to be 5.43 ± 0.17.
In the case of QVSPVRRAPSRRHGVRAKVQPQAR [CPN1], the protein stability index amounted to 4.88 ± 0.12 under setting [1] and 4.68 ± 0.13 under setting [2].
Consider QVYYFGPCGKYNAMVLELLGPSLE [CSNK1G1], for which the protein stability index under setting [1] worked out at 3.52 ± 1.8 and the protein stability index under setting [2] was 1.92 ± 0.25.
On to QWLKDKILSEEGRRQQAKLKELQA [KCNAB2], for which the protein stability index amounted to 3.13 ± 0.56 under setting [1] and 3.32 ± 0.13 under setting [2].
In the case of QYPGNYEQQQILIRQLQEQHYQQY [ACBD3], the protein stability index was found to be 3.17 ± 0.26 under setting [1] and 3.24 ± 0.18 under setting [2].
Regarding QYQYERYGAVELSGAGRRKNATRE [IRX6], the protein stability index is, setting by setting: under setting [1], 4.5 ± 0.39; under setting [2], 4.54 ± 0.32.
For RAACFDGHLEVVRYLVGEHQADLE [FEM1A], the protein stability index runs as follows: under setting [1], 3.31 ± 0.27; under setting [2], 3.39 ± 0.25.
As for RAKEEERLNKLRLESEGSPETLTN [HACD3], the protein stability index was determined as 5.38 ± 0.23 under setting [1] and 5.28 ± 0.26 under setting [2].
Turning to RALDRLQEVPHEGPMCDLLWSDPD [PPP2CA], the protein stability index worked out at 4.42 ± 0.34 under setting [1] and 4.66 ± 0.17 under setting [2].
Turning to RALQAALAESGGSPDVLQMLKIHR [TRADD], the protein stability index under setting [1] stood at 2.61 ± 0.34 and the protein stability index under setting [2] came out at 2.91 ± 0.25.
With RAMRYYYKREILERVDGRRLVYKF [ELF3], the protein stability index was found to be 2.49 ± 0.15 under setting [1] and 2.63 ± 0.41 under setting [2].
The corresponding values for RASATTTITTAAATSVTVPGAGVP [ZBTB22] are 4.49 ± 0.19 and 4.45 ± 0.3.
With RASPTRTAPLPMPEGPEPAAPGKQ [ELOA2], the protein stability index came to 5.4 ± 0.14 under setting [1] and 5.66 ± 0.1 under setting [2].
In the case of RCHTVPCAGSTALQEPGEPQGPPA [PXN], the protein stability index by setting is: under setting [1], 4.89 ± 0.15; under setting [2], 4.92 ± 0.25.
As for RDFAETHNCVDLMQAAEVFSQKHF [KLHL12], the protein stability index was 3.31 ± 0.23 under setting [1] and 3.21 ± 0.49 under setting [2].
On to RDHHSTHYRASEEEPEYGEEIKGY [CHGB], for which the protein stability index is, setting by setting: under setting [1], 5.1 ± 0.25; under setting [2], 5.05 ± 0.13.
Take RDHIPRGKEELESLGGGKTPPGR [MOG]: the protein stability index under setting [3] was determined as 3.87 ± 0.1 and the protein stability index under setting [4] turned out to be 4.09 ± 0.42.
Consider RDTTGVSQMFPSSKARTKSLLGDD [FBF1], for which the protein stability index turned out to be 4.83 ± 0.056 under setting [1] and 4.82 ± 0.14 under setting [2].
For REDITEPAICALRHLTSRHQEAEM [CTNNB1] the same measures were 4.58 ± 0.41 and 4.4 ± 0.43.
As to REDNSGSDVLIGDILVLLGASLYA [SLC35F2], the protein stability index came out at 2.79 ± 0.18 under setting [1] and 2.99 ± 0.61 under setting [2].
In the case of REEQQLLASTSKPVVKLLHNRSNN [KCTD13], the protein stability index amounted to 4.75 ± 0.23 under setting [1] and 4.89 ± 0.14 under setting [2].
Consider REEVRGRELTGLKALYETELADAR [LMNB1], for which the protein stability index runs as follows: under setting [1], 4.97 ± 0.2; under setting [2], 4.83 ± 0.27.
RENSKPRAILKPRKVCVGGKRRKD [PPP2R2B]: the protein stability index is, setting by setting: under setting [1], 4.73 ± 0.35; under setting [2], 4.89 ± 0.34.
As to RERFMECLMIGRDLVRLLQNVARI [INTS3], the protein stability index worked out at 2.31 ± 0.28 under setting [1] and 2.54 ± 0.31 under setting [2].
As to RERIERVRRIHIKRPDDRAHLHQ [KCTD10], the protein stability index amounted to 4.2 ± 0.36 under setting [3] and 4.51 ± 0.35 under setting [4].
Consider RFHDPSPAQSHTLQANDVFHKQQW [NET1], for which the protein stability index by setting is: under setting [1], 3.33 ± 0.11; under setting [2], 3.4 ± 0.29.
Turning to RFQDGDNILEKEVLPPIHAYGNRT [FEM1B], the protein stability index turned out to be 3.96 ± 0.14 under setting [1] and 4.001 ± 0.01 under setting [2].
Consider RFQLLYVACGMVHLLIPELGACVA [DNAAF3], for which the protein stability index is, setting by setting: under setting [1], 2.97 ± 0.17; under setting [2], 3.39 ± 0.44.
